Assay results taken from patent publication US20260265349A1 (GRIFFITH UNIVERSITY, published 2026).
Where “and” joins values, the source holds several entries; their conditions need not be identical. Equal values may be shown once. Read-outs that look alike come from different tables or passages of the source.

T1: norovirus GII.17 Kawasaki308 virus-like particles (norovirus GII.17 Kawasaki308)
T1 construct: also called GII.17 Kawasaki308 VLPs; GII.17 VLPs
T1 chain: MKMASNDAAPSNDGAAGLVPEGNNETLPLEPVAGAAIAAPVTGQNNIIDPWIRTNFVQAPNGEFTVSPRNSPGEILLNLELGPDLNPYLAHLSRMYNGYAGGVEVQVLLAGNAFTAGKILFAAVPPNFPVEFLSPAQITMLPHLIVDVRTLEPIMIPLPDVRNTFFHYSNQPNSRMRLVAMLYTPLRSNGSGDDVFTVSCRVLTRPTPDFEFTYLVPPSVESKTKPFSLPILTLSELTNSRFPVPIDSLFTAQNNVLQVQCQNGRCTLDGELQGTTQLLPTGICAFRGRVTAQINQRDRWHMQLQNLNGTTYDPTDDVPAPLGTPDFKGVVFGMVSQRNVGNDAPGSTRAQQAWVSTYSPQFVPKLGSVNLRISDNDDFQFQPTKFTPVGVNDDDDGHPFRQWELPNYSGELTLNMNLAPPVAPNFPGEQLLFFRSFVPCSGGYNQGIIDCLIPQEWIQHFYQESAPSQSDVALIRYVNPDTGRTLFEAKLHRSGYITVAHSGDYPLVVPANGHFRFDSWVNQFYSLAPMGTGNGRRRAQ

T2: norovirus GII.17 Kawasaki308 P domain (norovirus GII.17 Kawasaki308)
T2 construct: also called GII.17 P domain
T2 chain: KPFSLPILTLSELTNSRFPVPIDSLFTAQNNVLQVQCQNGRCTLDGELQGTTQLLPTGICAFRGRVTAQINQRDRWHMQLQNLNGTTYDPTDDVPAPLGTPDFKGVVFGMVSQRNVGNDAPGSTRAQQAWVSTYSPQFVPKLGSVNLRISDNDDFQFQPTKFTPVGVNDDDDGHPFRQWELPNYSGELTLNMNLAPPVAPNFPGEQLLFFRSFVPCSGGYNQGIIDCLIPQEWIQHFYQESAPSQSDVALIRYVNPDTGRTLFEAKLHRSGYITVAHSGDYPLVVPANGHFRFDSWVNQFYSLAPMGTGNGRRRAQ

T3: norovirus GII.4 Sydney-2012 virus-like particles (norovirus GII.4 Sydney-2012, UniProt P54635 1-538)
T3 construct: also called GII.4 Sydney-2012 VLPs; GII.4 VLPs
T3 chain: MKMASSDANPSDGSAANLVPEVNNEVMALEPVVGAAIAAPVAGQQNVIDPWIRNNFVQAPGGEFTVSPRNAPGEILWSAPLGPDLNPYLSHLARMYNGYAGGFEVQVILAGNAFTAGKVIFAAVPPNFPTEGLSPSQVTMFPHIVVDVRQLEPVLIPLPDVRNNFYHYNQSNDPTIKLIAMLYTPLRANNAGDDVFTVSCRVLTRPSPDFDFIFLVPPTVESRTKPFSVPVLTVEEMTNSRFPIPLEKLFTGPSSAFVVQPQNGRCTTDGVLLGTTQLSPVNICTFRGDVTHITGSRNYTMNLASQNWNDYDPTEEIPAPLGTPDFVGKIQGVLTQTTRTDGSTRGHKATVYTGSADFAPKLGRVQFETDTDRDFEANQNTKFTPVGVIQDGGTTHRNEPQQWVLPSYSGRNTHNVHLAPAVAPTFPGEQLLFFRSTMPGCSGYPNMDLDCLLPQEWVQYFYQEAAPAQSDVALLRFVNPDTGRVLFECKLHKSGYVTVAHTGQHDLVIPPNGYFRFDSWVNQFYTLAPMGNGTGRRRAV

T4: norovirus GII.10 Vietnam 026 virus-like particles (norovirus GII.10 Vietnam 026)
T4 construct: also called GII.10 VLPs
T4 chain: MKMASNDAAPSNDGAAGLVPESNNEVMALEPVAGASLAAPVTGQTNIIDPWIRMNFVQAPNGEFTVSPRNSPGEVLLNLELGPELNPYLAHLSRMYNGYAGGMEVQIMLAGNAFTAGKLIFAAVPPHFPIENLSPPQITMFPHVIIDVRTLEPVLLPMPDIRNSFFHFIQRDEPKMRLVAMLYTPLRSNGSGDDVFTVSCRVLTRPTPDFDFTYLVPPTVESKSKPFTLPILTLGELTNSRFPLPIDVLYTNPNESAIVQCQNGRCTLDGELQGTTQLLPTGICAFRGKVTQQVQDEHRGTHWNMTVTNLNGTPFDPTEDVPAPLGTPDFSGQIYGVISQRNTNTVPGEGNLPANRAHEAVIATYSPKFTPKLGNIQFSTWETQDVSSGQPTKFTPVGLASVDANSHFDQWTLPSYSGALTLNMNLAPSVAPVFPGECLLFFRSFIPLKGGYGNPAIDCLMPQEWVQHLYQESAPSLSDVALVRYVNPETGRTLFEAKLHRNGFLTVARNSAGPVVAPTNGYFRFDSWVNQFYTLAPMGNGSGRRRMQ

T5: norovirus GII.4 Sydney-2012 P domain (norovirus GII.4 Sydney-2012)
T5 construct: also called GII.4 P domain
T5 chain: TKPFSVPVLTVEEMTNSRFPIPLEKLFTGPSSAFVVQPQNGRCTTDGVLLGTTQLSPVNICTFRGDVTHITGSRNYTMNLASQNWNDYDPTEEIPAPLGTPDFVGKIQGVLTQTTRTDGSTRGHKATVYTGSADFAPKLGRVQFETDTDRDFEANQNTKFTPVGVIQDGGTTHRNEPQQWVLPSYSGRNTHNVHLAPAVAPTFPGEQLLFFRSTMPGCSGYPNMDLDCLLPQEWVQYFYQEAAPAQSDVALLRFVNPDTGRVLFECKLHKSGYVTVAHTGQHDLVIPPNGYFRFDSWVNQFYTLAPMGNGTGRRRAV

B1: NB-45 single domain antibody (VHH)
VHH: QVQLQESGGGLVQAGGSLRLSCTVSGRTDSESTMGWFRQAAGKGREFVAAMNWRYATTYHTDSVKGRFTISKDSAKNTMYLQMNSLKPEDTAVYYCAHRYIYGSLSDSGSYDNWGQGTQVTVSS
notes: also called GII.17 nanobody; not shown: C-terminal His tag ('His-tagged nanobodies')
B2: NB-76 single domain antibody (VHH, not shown: small tags and cut ends)
VHH: QVQLQESGGGLVQAGGSLRLSCAASGTIFSIDAFGWYRQAPGKQREWVAGITSGSSTIYADFVKGRFTISRDNAKNTVFLQMNSLKPEDTAVYYCNRAKPPTYYSLEPWGKGTQVTVSS
notes: also called GII.4 nanobody
B3: NB-2 single domain antibody (VHH)
VHH: QVQLQESGGGLVQAGGSLRLSCAASGRFFSSYAMGWFRQAPGKEREFVAAISWSGGSTYYADSVKGRFTTSRDNAKNTVYLLMNSLKPEDTAVYYCAAAREGAYYPDSYYRTVRYDYWGQGTQVTVSS
notes: as for B1
B4: NB-7 single domain antibody (VHH)
VHH: QVQLQESGGGLVQAGGSLRLSCAASGRTFSSYRMGWYRQAPGKEREFVAAITGSGDSTNYADSVKGRFTVSGNSARNLVYLQMNSLKPEDTAVYLCVAYRTGGPPQWGQGTQVTVSS
notes: as for B1

Key:
[1] = molecular target: T1, norovirus GII.17 Kawasaki308 virus-like …; assay: blocking ELISA: VLPs pre-incubated with nanobody, attachment to PGM (HBGA) coated plate
[2] = molecular target: T2, norovirus GII.17 Kawasaki308 P domain; assay: ITC, nanobody into P domain, 25 C
Procedure: (§1) Isothermal calorimetry (ITC) experiments were done using an ITC-200 (Malvern). Samples were prepared in PBS and filtered prior to the experiments. […] Injections were performed until saturation was achieved. To correct for heats of dilution from titrants control experiments were performed by titrating nanobodies into PBS. The heat associated with the control titration was subtracted from raw binding data prior to fitting. The data was fitted using a single set-binding model (Origin 7.0 software). Nanobody binding sites on the P domains were assumed to be identical. All ITC experiments were performed in triplicate with the average and standard deviation calculated.

[3] = molecular target: T3, norovirus GII.4 Sydney-2012 virus-like …; assay: direct ELISA on coated VLPs, heat map of OD492
[4] = molecular target: T4, norovirus GII.10 Vietnam 026 virus-like …; assay: direct ELISA on coated VLPs, heat map of OD492
[5] = molecular target: T3, norovirus GII.4 Sydney-2012 virus-like …; assay: direct ELISA on coated VLPs
[6] = molecular target: T1, norovirus GII.17 Kawasaki308 virus-like …; assay: direct ELISA on coated VLPs, heat map of OD492
[7] = molecular target: T4, norovirus GII.10 Vietnam 026 virus-like …; assay: direct ELISA on coated VLPs, heat map of OD492
[8] = molecular target: T3, norovirus GII.4 Sydney-2012 virus-like …; assay: blocking ELISA: VLPs pre-incubated with nanobody, attachment to PGM (HBGA) coated plate
[9] = molecular target: T3, norovirus GII.4 Sydney-2012 virus-like …; assay: direct ELISA, VLPs coated at 2 µg/mL, His-tagged nanobody detected with anti-His-HRP, OD490
[10] = molecular target: T5, norovirus GII.4 Sydney-2012 P domain; assay: ITC, nanobody into P domain, 25 C
Procedure: as §1

[11] = molecular target: T1, norovirus GII.17 Kawasaki308 virus-like …; assay: direct ELISA on coated VLPs

Binder	IC50 [1]	+TΔS [2]	Kd [2]	ΔG [2]	ΔH [2]	binding result [3]	binding result [4]	nanobody concentration at the cut-off (OD490 0.15) [5]	binding result [6]	binding result [7]	IC50 [8]	EC50 (read off the curve) [9]	+TΔS [10]	Kd [10]	ΔG [10]	ΔH [10]	nanobody concentration at the cut-off (OD490 0.15) [11]
B1	0.46 µg/mL	-4.4 kcal/mol	101 nM	-9.82 kcal/mol	-5.43 kcal/mol	no binding	no binding	–	–	–	–	–	–	–	–	–	–
B2	–	–	–	–	–	–	–	0.38 µg/mL	no binding	no binding	1.42 µg/mL	~2 µg/mL	2.22 kcal/mol	56.7 nM	-9.89 kcal/mol	-12.1 kcal/mol	–
B3	0.85 µg/mL and 0.84 µg/mL	6.14 kcal/mol	7.5 nM	-11.1 kcal/mol	-17.2 kcal/mol	no binding	no binding	–	–	–	–	–	–	–	–	–	0.78 µg/mL
B4	0.88 µg/mL	10.2 kcal/mol	40.9 nM	-10.1 kcal/mol	-20.3 kcal/mol	no binding	no binding	–	–	–	–	–	–	–	–	–	1.56 µg/mL
